# Results: publication PMC4288179, “Synergic interplay of the La motif, RRM1 and the interdomain linker of LARP6 in the recognition of collagen mRNA expands the RNA binding repertoire of the La module”
# T1: Interlinker chimera (Homo sapiens, UniProt Q9BRS8 70-178+P05455:101-111+181-300, internal_change)
# T1 sequence: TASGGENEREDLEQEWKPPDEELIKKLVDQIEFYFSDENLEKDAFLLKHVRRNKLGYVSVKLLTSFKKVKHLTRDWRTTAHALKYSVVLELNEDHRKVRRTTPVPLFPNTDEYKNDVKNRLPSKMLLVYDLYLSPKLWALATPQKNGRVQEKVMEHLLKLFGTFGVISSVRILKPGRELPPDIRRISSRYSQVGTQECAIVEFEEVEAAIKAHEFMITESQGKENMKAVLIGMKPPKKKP
# T2: Loop1 chimera (Homo sapiens, UniProt Q9BRS8 70-189+P05455:116-122+209-300, internal_change)
# T2 sequence: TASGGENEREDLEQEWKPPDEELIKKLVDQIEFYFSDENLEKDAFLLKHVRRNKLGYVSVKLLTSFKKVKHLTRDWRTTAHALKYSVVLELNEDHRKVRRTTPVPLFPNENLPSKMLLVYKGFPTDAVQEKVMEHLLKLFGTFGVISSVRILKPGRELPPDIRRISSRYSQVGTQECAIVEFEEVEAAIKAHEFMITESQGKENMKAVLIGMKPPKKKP
# T3: HsLARP6 RRM1 (180-295) (Homo sapiens, UniProt Q9BRS8 180-295)
# T3 sequence: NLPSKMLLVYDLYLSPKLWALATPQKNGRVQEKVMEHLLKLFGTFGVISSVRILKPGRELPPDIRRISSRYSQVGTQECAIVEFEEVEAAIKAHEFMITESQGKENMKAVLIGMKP
# T4: HsLARP6(70-300) W198A (Homo sapiens, UniProt Q9BRS8 70-300, W198A)
# T4 sequence: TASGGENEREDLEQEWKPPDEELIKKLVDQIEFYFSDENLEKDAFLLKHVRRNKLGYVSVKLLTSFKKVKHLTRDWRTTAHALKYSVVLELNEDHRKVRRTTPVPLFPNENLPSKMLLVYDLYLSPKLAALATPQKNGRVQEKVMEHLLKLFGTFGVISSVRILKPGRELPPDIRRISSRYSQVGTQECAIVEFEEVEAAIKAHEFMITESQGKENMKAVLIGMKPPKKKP
# T5: HsLARP6(70-300) R244A (Homo sapiens, UniProt Q9BRS8 70-300, R244A)
# T5 sequence: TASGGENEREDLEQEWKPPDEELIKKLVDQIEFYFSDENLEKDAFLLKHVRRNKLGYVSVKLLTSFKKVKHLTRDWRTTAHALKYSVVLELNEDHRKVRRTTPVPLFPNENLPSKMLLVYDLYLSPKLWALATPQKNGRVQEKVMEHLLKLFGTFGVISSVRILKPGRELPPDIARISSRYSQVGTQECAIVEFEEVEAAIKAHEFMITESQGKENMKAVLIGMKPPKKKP
# T6: HsLARP6 La module (70-300) (Homo sapiens, UniProt Q9BRS8 70-300)
# T6 sequence: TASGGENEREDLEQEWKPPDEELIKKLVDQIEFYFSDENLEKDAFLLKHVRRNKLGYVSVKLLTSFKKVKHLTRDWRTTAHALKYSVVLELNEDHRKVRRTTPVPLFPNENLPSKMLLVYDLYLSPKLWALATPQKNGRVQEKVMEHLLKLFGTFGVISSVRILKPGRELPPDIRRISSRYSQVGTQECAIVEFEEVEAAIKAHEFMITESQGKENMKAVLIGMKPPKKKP
# What was measured:
# Interlinker chimera = target: T1, Interlinker chimera; assay: ITC; text says 500-fold decrease; table gives about 14-fold; ITC: 20 mM Tris pH 7.25, 100 mM KCl, 5 mM MgCl2, 1 mM DTT, 298 K; protein titrated into RNA; settings: protein: recombinant; tags: N-terminal His6 (TEV-cleavable); stem-loop with internal bulge
# Loop1 chimera = target: T2, Loop1 chimera; assay: ITC; ITC: 20 mM Tris pH 7.25, 100 mM KCl, 5 mM MgCl2, 1 mM DTT, 298 K; protein titrated into RNA; settings: protein: recombinant; tags: N-terminal His6 (TEV-cleavable); stem-loop with internal bulge
# HsLARP6 RRM1 (180-295) = target: T3, HsLARP6 RRM1 (180-295); assay: as above; settings: protein: recombinant; tags: N-terminal His6 (TEV-cleavable); stem-loop with internal bulge
# HsLARP6(70-300) W198A = target: T4, HsLARP6(70-300) W198A; assay: as above; settings: protein: recombinant; tags: N-terminal His6 (TEV-cleavable); stem-loop with internal bulge
# HsLARP6(70-300) R244A = target: T5, HsLARP6(70-300) R244A; assay: as above; settings: protein: recombinant; tags: N-terminal His6 (TEV-cleavable); stem-loop with internal bulge
# [1] = target: T6, HsLARP6 La module (70-300); assay: ITC; 200 mM KCl; ITC: 20 mM Tris pH 7.25, 100 mM KCl, 5 mM MgCl2, 1 mM DTT, 298 K; protein titrated into RNA; settings: protein: recombinant; tags: N-terminal His6, TEV-cleaved for initial ITC; stem-loop with internal bulge
binder,measurement,setting,value
CCACAAAGAGUCUACAUGUCUAGGGUCUAGACAUGUUCAGCUUUGUGG (structured_RNA) [48 nt RNA (collagen alpha1(I) 5' UTR SL)],Kd,Interlinker chimera,667 nM
same,Kd,Loop1 chimera,18 nM
same,binding result,HsLARP6 RRM1 (180-295),no binding
same,Kd,HsLARP6(70-300) W198A,71 nM
same,Kd,HsLARP6(70-300) R244A,71 nM
same,Kd,[1],50 nM
